Article PMC3158819 (Journal of molecular biology, 2011)
Each block holds one binder with its values, some of them ahead of it.

How the values were obtained:
[1] = target: T1, CASK CaMK domain (residues M1-A310) (human, UniProt O14936 1-310); test: SPR
T1 sequence (looked up): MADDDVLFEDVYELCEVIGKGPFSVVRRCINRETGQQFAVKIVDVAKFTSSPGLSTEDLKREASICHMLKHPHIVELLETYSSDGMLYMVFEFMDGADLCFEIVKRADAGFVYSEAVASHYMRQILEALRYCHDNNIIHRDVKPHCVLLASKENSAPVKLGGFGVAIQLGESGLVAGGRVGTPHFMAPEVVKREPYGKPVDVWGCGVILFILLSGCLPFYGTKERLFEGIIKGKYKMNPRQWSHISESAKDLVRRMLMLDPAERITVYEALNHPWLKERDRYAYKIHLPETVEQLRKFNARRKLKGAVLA

[2] = target: T1, CASK CaMK domain (residues M1-A310); test: SEC

Kd [1]: 7.5 ± 0.5 µM
B1: Caskin1 CID (residues I375 to G471) (domain or fragment, UniProt Q8WXD9 375-471, looked up)
chain: IWVLRKPFAGGDRSGSISGMAGGRGSGGHALHAGSEGVKLLATVLSQKSVSESGPGDSPAKPPEGSAGVARSQPPVAHAGQVYGEQPPKKLEPASEG

binding result [2]: binds
B2: Caskin1 CID-SAMs (residues I375 to L605), wild type (domain or fragment)
chain: not shown
